Data as given in publication PMC3043092.

Columns and labels:
[1] = biological target: Pisum sativum thioredoxin f (Pisum sativum); assay: SEC; Superdex 75 HR 16/60, 1 ml/min, 25°C; 100 µl at 24 µM loaded; 50 mM buffer with 150 mM NaCl, pH >= 7.0; no reducing agent
[2] = biological target: Pisum sativum thioredoxin h1 (Pisum sativum); assay: as above

Substance	stoichiometry N [1]	stoichiometry N [2]
Pisum sativum thioredoxin f (natural protein)	2	
Pisum sativum thioredoxin h1 (natural protein)		2
